Assay results taken from paper PMC13168245.

Target: AMC008 SOSIP.v4.2 Env (HIV-1 (clade B, isolate AMC008))
Assay: mass photometry; AMC008 alone or with one excess Fab, 1:9 molar ratio in PBS, on ice 30 minutes, diluted in PBS; mass increase divided by 55 kDa per Fab

Substance | stoichiometry N
AMC008 SOSIP.v4.2 Env (complex) | 3
antibody 3BC315 Fab | 2.07 Fab/55 kDa
antibody b12 Fab | 3.09 Fab/55 kDa
